What is called Kd is the equilibrium constant for the complex coming apart.

Series [1] concerns the target T1, ZmNDPK1 (nucleoside diphosphate kinase 1, homolog of human NM23-H2) (Zea mays, UniProt B4FK49 1-149).
T1 sequence: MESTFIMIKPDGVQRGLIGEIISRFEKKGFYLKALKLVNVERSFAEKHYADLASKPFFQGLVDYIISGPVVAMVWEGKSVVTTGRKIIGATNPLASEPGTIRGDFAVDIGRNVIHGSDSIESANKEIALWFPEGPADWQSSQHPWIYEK
Put plainly: filter binding; 20 mM KCl; Filter binding: oligos annealed in 10 mM TBA phosphate pH 7.5 + 20 mM KCl, 60 min incubation; competition 1 nM FAM probe, 100 nM competitor, 5 nM protein. FRET: 10 mM TBA pH 7.5 + 100 mM KCl or LiCl, 1 h at 4 °C, 0-1000 nM protein. As to conditions: protein: recombinant, chain copies: 6, label: 5' FAM (Kd).

Series [2] has as its target T1, ZmNDPK1 (nucleoside diphosphate kinase …). Put plainly: competition; 100-fold excess vs hex4_A5U, 20 mM KCl; Filter binding: oligos annealed in 10 mM TBA phosphate pH 7.5 + 20 mM KCl, 60 min incubation; competition 1 nM FAM probe, 100 nM competitor, 5 nM protein. FRET: 10 mM TBA pH 7.5 + 100 mM KCl or LiCl, 1 h at 4 °C, 0-1000 nM protein. To be noted: protein: recombinant, chain copies: 6.

Regarding GGGTTTTGAAGGGATTATTAGGGAGGG (structured_DNA) [A5UAH (canonical; trim_AH)], in series [1] (canonical G4, parallel), the Kd is 14.4 nM. For the same molecule, the binding signal in series [2] (label: 5' FAM (Kd), canonical G4, parallel) worked out at 77 % competition.

Take GGGTTTTGAAGGGAGGAGTATTTAGGG (structured_DNA) [A5UAD]: in series [2] (bulged G4, parallel), the binding signal worked out at 73 % competition.

Regarding GGGTTTTGAATGGAGTATGAGGTAGGG (structured_DNA) [A5UBG], in series [2] (bulged G4, anti-h by CD), the binding signal was 50 % competition.

For GGGTTTTGAATTTATGAGGAGGGAGGG (structured_DNA) [A5UEH], the binding signal in series [2] (bulged G4, parallel) worked out at 81 % competition.

As for GGGTTTTGAATGGAGTATTAGGGAGGG (structured_DNA) [A5UBH], the binding signal in series [2] (bulged G4, parallel) turned out to be 85 % competition.

As for GGGTTTTGAATTGAGGATGAGGTAGGG (structured_DNA) [A5UCG], in series [2] (bulged G4, mixed by CD), the binding signal was determined as 36 % competition.

GGGTTTTGAAGGGATGAGGATTTAGGG (structured_DNA) [A5UAE]: the Kd in series [1] (bulged G4, anti-h by CD) is 194 nM. Further, the binding signal in series [2] (label: 5' FAM (Kd), bulged G4, anti-h by CD) worked out at 16 % competition.

In the case of GGGTTTTGAATGGAGTAGGAGTTAGGG (structured_DNA) [A5UBF], in series [2] (bulged G4, anti-h by CD), the binding signal was 23 % competition.

For the molecule GGGTTTTGAATTGAGGATTAGGGAGGG (structured_DNA) [A5UCH], the binding signal in series [2] (bulged G4, parallel) came to 76 % competition.

Consider GGGTTTTGAAGGGATTATGAGGTAGGG (structured_DNA) [A5UAG], for which the binding signal in series [2] (bulged G4, anti-h by CD) came out at 40 % competition.

As to GGGTTTTGAAGGGATTAGGAGTTAGGG (structured_DNA) [A5UAF], the binding signal in series [2] (bulged G4, anti-h by CD) was 15 % competition.

In the case of GGGTTTTGAATTTAGGAGTAGGGAGGG (structured_DNA) [A5UDH], the binding signal in series [2] (bulged G4, parallel) is 77 % competition.

For GGGTTTTGAATTGAGGAGGAGTTAGGG (structured_DNA) [A5UCF], the binding signal in series [2] (bulged G4, parallel) was 62 % competition.

(Values after paper PMC6572678, “Bulged and Canonical G-Quadruplex Conformations Determine NDPK Binding Specificity”.)
